“And” between values parts separate entries of the source, which are not always exact repeats. Equal values may be shown once.
Biological target: SARS-CoV-2 S protein (C-terminally truncated, on pseudotyped virus) (SARS-CoV-2 (Wuhan-Hu-1), UniProt P0DTC2 14-1254)
Assay: cell-based or functional assay

B1: Nb4 (VHH)
VHH: QVQLVESGGGLVQAGGSLRLSCVASGSGFEPNAMGWYRQAPGKQRELVAGITSGGNANYADSVKGRFTISRDNVKNTVYLQMNSLKPEDTAVYYCNAVGPRFNPRGSPTNYWGQGTQVTVSS
**Q.** B1 was tested. Which “IC50 (pseudovirus neutralization)” value did it give?
**A.** 41 nM and 554 ng/ml

**Q.** What about the “IC90 (pseudovirus neutralization)” value of the same binder?
**A.** 4490 ng/ml and 332 nM

B2: Nb21 (VHH)
VHH: QVQLVESGGGLVQAGGSLRLSCAVSGLGAHRVGWFRRAPGKEREFVAAIGANGGNTNYLDSVKGRFTISRDNAKNTIYLQMNSLKPQDTAVYYCAARDIETAEYTYWGQGTQVTVSS
**Q.** How did the “IC50 (pseudovirus neutralization)” value turn out when B2 was run?
**A.** 1900 ng/ml and 141 nM

**Q.** And the “IC90 (pseudovirus neutralization)” value?
**A.** 3230 ng/ml and 239 nM

Reference: patent publication US20240132577A1 (US Dept. of Health and Human Services, published 2024)
